# Numbering of substitutions follows the chain as printed. Names and notes keep the numbering of the source.
# B1: mAb0062 (antibody, V domains shown)
# VH: QVQLQQSGAEPMKPGASVKISCKATGYTFSSHWIEWIKQRPGHGLEWIGEILPGSGNTNYNEKFKGKATFTADTSSNTAYMQLSSLTSEDSAVYYCARGYYGLNYDWYFDVWGAGTTVTVSS
# VL: DIQMTQTTSSLSASLGDRVTISCRASQDISNYLNWYQQKPDGTVKLLIFYTSRLHSGVPSRFSGSGSGTDYSLTISNLEPEDIATYYCQQDTKLPYTFGGGTKLEMKR
# notes: Mouse VH/VL, human IgG4 / kappa; variant of mAb0052 (HC C91Y, Kabat); The entries seem to include signal peptides; also called antiTLT-1 0062mab; (0052HC.C91Y)2
# B2: mAb0023 (antibody, V domains shown)
# VH: EVRLVESGGGLVQPGGSLKLSCATSGFTFSDYFMYWIRQTPEKRLEWVAYISNGGDSSSYPDTVKGRFTISRDNAKNTLYLQMSRLKSEDTAMYYCATNKNWDDYYDMDYWGQGTSVTVSS
# VL: DIVVSQSPSSLAVSAGEKVTMSCKSSQSLLNSRTRKNYLAWYQQKPGQSPKLLIYWASTRESGVPDRFTGSGSGTDFTLTISSVQAEDLAVYYCKQSYNLLTFGAGTKLELKR
# notes: Mouse VH/VL, human IgG4 / kappa; also called antiTLT-1 0023mab
# B3: Fab0100 (Fab, V domains shown)
# VH: EVKLLESGGGLVQPGGSLKLSCAASGFDFSRYWMTWVRQAPGKGLEWIGEINPDSSTINYNPSLKDKFIISRDNAKNTLYLQMSEVRSEDTALYYCASGVFTSWGQGTLVTVSA
# VL: DVVMTQTPLSLPVSLGDQASISCRSSQSLVHRNGNTYFHWALQKPGQSPKLLIYKVSNRFSGVPDRFSGSGSGTDFTLKISRVEAEDLGVYFCSQSTHVPYTFGGGTKLEIKR
# notes: also called anti-TLT-1 Fab; identical to Fab0061
# Legend:
# hTLT-1 ECD-His = biological target: T1, hTLT-1 ECD-His (human, UniProt Q86YW5 16-162); test: SPR Biacore, mAb immobilised directly, TLT-1 as analyte
# T1 construct: Extracellular domain of human TLT-1 with C-terminal His-6 tag; the range 16-168 is computed from these; also called TLT-1-His; His tagged human TLT1
# T1 sequence: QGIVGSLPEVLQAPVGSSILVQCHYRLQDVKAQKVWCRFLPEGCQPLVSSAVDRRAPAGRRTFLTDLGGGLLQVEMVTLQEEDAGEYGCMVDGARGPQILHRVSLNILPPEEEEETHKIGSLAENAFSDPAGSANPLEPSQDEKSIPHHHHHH
# Protocol: Method: The mAbs of interest were either immobilized directly to a CM5 chip or by capture via a human Fc capture mAb immobilized to a CM5 chip, while TLT-1-His was immobilized by capture via an anti-His mAb CM5 chip for analysis of Fabs.
# mAb direct capture: The TLT-1 mAbs were immobilised to a level of approx 500-1000 RU on a CM5 chip (50 μg/ml diluted in Na-acetate, pH 4.0) using the standard procedure recommended by the supplier. Two-fold dilutions of TLT-1 from 200 nM to 0.2 nM were tested for binding to the mAbs. Running and dilution buffer: 10 mM HEPES, 150 mM, 0.005% p20, pH 7.4. Regeneration was obtained by 10 mM Glycine, pH 1.7. mAb capture via human Fc mAb: Human Fc mAb was immobilised to approx 10.000 RU. The mAb of interest was added (approx 100 nM). Two-fold dilutions of TLT-1 from 200 nM to 0.2 nM were tested. Running and dilution buffer: 10 mM HEPES, 150 mM, 0.005% p20, pH 7.4. Regeneration was obtained in 3 M MgCl₂.
# hTLT-1 ECD-HPC4 F54A = biological target: T2, hTLT-1 ECD-HPC4 F54A (human, UniProt Q86YW5 16-162); test: SPR ProteOn, mAb captured by anti-hFc, 100 nM mutant, signal 10 s after injection
# T2 construct: Built as m17; also called Ala mutant 12
# T2 chain: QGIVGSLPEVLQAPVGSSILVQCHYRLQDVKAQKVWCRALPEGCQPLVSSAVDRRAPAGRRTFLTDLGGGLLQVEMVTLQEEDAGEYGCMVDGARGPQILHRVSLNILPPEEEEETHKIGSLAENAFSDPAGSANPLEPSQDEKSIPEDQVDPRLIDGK
# Protocol: (§1) Each antibody was diluted in 10 mM sodium acetate pH 5.0 to a concentration of 50 μg/ml, and was immobilized to an individual flow cell at 30 μl/min for 240 s. The antibodies were immobilized to flow cells A1-A6 (horizontal direction). After immobilization, the active sites on the flow cell were blocked with 1 M ethanolamine. The final immobilization level of capture antibody typically ranged from approximately 9,000 to 10,000 RU in one experiment. Capture of the anti-TLT-1 antibodies mAb0023, mAb0051, mAb0061 and mAb0062 was conducted by diluting to 0.5 μg/ml into HBS-EP buffer (10 mM HEPES, 150 mM NaCl, 3 mM EDTA, 0.05% surfactant P20, pH 7.4) and injected at 30 μl/min for 60 s in vertical direction, creating interspot reference points with only anti-human Fc antibodies.
# (§2) The final capture level of test antibodies typically ranged from approximately 200 to 300 RU in one experiment. Binding of wt or Ala mutant hTLT-1 ECD-HPC4 protein was conducted by injecting over parallel flow cells in horizontal direction to allow for comparative analyses of binding to different captured anti-TLT-1 antibodies relative to binding to the interspot references. Each hTLT-1 ECD-HPC4 protein was diluted to 100 nM, based on the calculated average Mw, into HBS-EP buffer and injected at 30 μl/min for 240 s. The GLM chip was regenerated after each injection cycle of analyte via one 18 s injection of 1 M Formic acid followed by a 18s injection of 50 mM NaOH at 100 μl/min. This regeneration step removed the anti-TLT-1 antibody and any bound TLT-1 from the immobilized capture antibody surface, and allowed for the subsequent binding of the next test sample pair.
# (§3) Data analysis was performed using the ProteOn Manager™ Software. No significant non-specific binding to the interspot control surfaces was observed. Binding curves were processed by double referencing (subtraction of interspot control surface signals as well as blank buffer injections over captured anti-TLT-1 antibodies). This allowed correction for instrument noise, bulk shift and drift during sample injections. Binding signal at 10 s after stop of analyte injection was normalized to level of captured anti-TLT-1 antibody and presented as binding relative to wt hTLT-1 ECD-HPC4 protein.
# hTLT-1 ECD-HPC4 M91A = biological target: T3, hTLT-1 ECD-HPC4 M91A (human, UniProt Q86YW5 16-162); test: as above
# T3 construct: Built as m17; also called Ala mutant 24
# T3 chain: T2 chain with A39F, M76A
# Protocol: as §1, §2, §3
# hTLT-1 ECD-HPC4 R41A = biological target: T4, hTLT-1 ECD-HPC4 R41A (human, UniProt Q86YW5 16-162); test: as above
# T4 construct: Built as m17; also called Ala mutant 7
# T4 chain: T2 chain with R26A, A39F
# Protocol: as §1, §2, §3
# hTLT-1 ECD-HPC4 L42A = biological target: T5, hTLT-1 ECD-HPC4 L42A (human, UniProt Q86YW5 16-162); test: as above
# T5 construct: Built as m17; also called Ala mutant 8
# T5 chain: T2 chain with L27A, A39F
# Protocol: as §1, §2, §3
# hTLT-1 ECD-HPC4 Q43A = biological target: T6, hTLT-1 ECD-HPC4 Q43A (human, UniProt Q86YW5 16-162); test: as above
# T6 construct: Built as m17; also called Ala mutant 9
# T6 chain: T2 chain with Q28A, A39F
# Protocol: as §1, §2, §3
# hTLT-1 ECD-HPC4 R110A = biological target: T7, hTLT-1 ECD-HPC4 R110A (human, UniProt Q86YW5 16-162); test: as above
# T7 construct: Built as m17; also called Ala mutant 30
# T7 chain: T2 chain with A39F, R95A
# Protocol: as §1, §2, §3
# hTLT-1 ECD-HPC4 H116A = biological target: T8, hTLT-1 ECD-HPC4 H116A (human, UniProt Q86YW5 16-162); test: as above
# T8 construct: Built as m17; also called Ala mutant 31
# T8 chain: T2 chain with A39F, H101A
# Protocol: as §1, §2, §3
# hTLT-1 ECD-HPC4 K46A = biological target: T9, hTLT-1 ECD-HPC4 K46A (human, UniProt Q86YW5 16-162); test: as above
# T9 construct: Built as m17; also called Ala mutant 10
# T9 chain: T2 chain with K31A, A39F
# Protocol: as §1, §2, §3
# hTLT-1.126-162 = biological target: T10, hTLT-1.126-162 (human); test: crystal structure of the Fab0100:hTLT-1.126-162 complex; complex isolated by gel filtration
# T10 construct: Made by solid phase peptide synthesis; not glycosylated; also called TLT-1 stalk peptide; chain P
# T10 peptide: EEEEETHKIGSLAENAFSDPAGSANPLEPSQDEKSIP
# Protocol: The complex was subjected to gel filtration using a Superdex 200 HighLoad 26/60 (GE Healthcare) column eluted with PBS-buffer (pH 7.4) at a flow rate of 1 ml/min. Fractions corresponding to a volume of 3 ml were collected.
# The crystal was allowed to soak for about 15 seconds, then flash frozen in liquid N₂ and during data collection kept at 100 K by a cryogenic N₂ gas stream. Crystallographic data were subsequently collected to 1.85 Å resolution at beam-line BL911-3 (Ursby, T. et al. (2004) AIP Conference Proceedings 705, 1241-1246) at MAX-lab, Lund, Sweden. Space group determination, integration and scaling of the data were made in the XDS software package. Cell parameters for the synchrotron data were determined to be 82.54, 65.32, 108.05 Å, 90°, 95.15° and 90°, for a, b, c, α, β and γ, respectively, and space group was determined to be C2. Rsym for intensities of the data set was calculated to be 6.7%.
Binder,Kd (hTLT-1 ECD-His) [nM],koff (hTLT-1 ECD-His) [s⁻¹],kon (hTLT-1 ECD-His) [M⁻¹ s⁻¹],binding relative to wt hTLT-1 ECD-HPC4 (hTLT-1 ECD-HPC4 F54A),binding relative to wt hTLT-1 ECD-HPC4 (hTLT-1 ECD-HPC4 M91A),binding relative to wt hTLT-1 ECD-HPC4 (hTLT-1 ECD-HPC4 R41A),binding relative to wt hTLT-1 ECD-HPC4 (hTLT-1 ECD-HPC4 L42A),binding relative to wt hTLT-1 ECD-HPC4 (hTLT-1 ECD-HPC4 Q43A),binding relative to wt hTLT-1 ECD-HPC4 (hTLT-1 ECD-HPC4 R110A),binding relative to wt hTLT-1 ECD-HPC4 (hTLT-1 ECD-HPC4 H116A),binding relative to wt hTLT-1 ECD-HPC4 (hTLT-1 ECD-HPC4 K46A),binding result (hTLT-1.126-162)
B1,4.12,0.00134,326000,< 0.6 fraction of wt,< 0.4 fraction of wt,< 0.2 fraction of wt,< 0.6 fraction of wt,< 0.4 fraction of wt,< 0.2 fraction of wt,< 0.6 fraction of wt,,
B2,4.36,0.00125,287000,,< 0.4 fraction of wt,,< 0.2 fraction of wt,< 0.2 fraction of wt,< 0.2 fraction of wt,,< 0.2 fraction of wt,
B3,,,,,,,,,,,,binds
